The values below come from patent publication US20200113997A1 (published 2020).

The labels stand for the following.
B1: DH270.3 (antibody, V domains shown)
VH: QVQLVQSGAEMKNPGASVKVSCAASGYTFTDFYIHWVRLAPGQGLEWMGWMNPKTGRTNNAQNFQGRVIMTRDTSIGTAYMELRRLTSDDTAVYYCVTGGWISPYYDSSYYPNFDHWGQGTLVTVSS
VL: QSALTQPASVSGSPGQSITISCTGTSYDVGKFDLVSWYQQHPGKAPKYMIYEVNKWPSGVSHRFSGSKSGNTASLTISGLQAEDEADYYCCSFGGSATVVCGGGTKVTVL
B2: DH270.4 (antibody, V domains shown)
VH: EVQLVQSGAEMKNPGASVKVSCAASGYGFTDFYIHWVRLAPGHGLQWMGWMNPKTGRTNNAQDFQGRVILTRDTSIGTAYMELRRLTSDDTAVYYCVTGGWISPYYDSSYYPNFDHWGQGTLITVSS
VL: QSALTQPASVSGSPGQSITISCTGTSYDVAKFDLVSWFQQHPGKAPKYMIYEVNKWPSGVSHRFSGSKSGNTASLTISGLQAEDEADYYCCSFGGSATVVCGGGTKVTVL
B3: DH270.5 (antibody, V domains shown)
VH: QVQLVQSGAEVKNPGASVKVSCAPSGYTFTDFYIHWVRLAPGQGLEWLGWMNPKTGRTNQGQNFQGRVIMTRDTSIGTAYMELRSLTSDDTAVYYCVTGAWISDYYDSSYYPNFDHWGQGTLVTVSS
VL: LPVLTQPASVSGSPGQSITISCTGTIYDVGKFDLVSWYQHHPGKAPKYLIYEVKKWPSGVSHRFSGSKSGNTASLTISGLQVEDEADYYCCSFGGSAAVVCGGGTKVTVL
B4: DH270.2 (antibody, V domains shown)
VH: QVQLVQSGAEMKKPGASVRVSCKASGYTFTDYYIHWVRQAPGQGPEWMGWINPSTGRTNSPQKFQGRVIMTRDTSISTAYMDLNRLTSDDTAMYYCTTGGWIGLYSDTSGYPNFDYWGQGTLVTVSS
VL: QSALTQPASVSGSPGQSITISCTGTNYDVGSYNLVSWYQQHPGKVPKYIIYEVNKRPSGVSNRFSGSKSGNTASLTISGLQAEDEADYYCCSYAGSSIIFFGGGTKLTVI

The assay deals with T1, Man9-V3 glycopeptide (cyclic).
T1 peptide: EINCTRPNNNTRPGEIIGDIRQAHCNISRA
Kind of assay: BLI. In general terms: BLI is a label-free optical method that tracks binding on a fibre tip over time.
Molecule B1 showed a Kd of 195 nM. In other words, the sub-micromolar range. B2 registered a Kd of 346 nM. Against the preceding molecule, the Kd is about 1.8-fold higher. B3 yielded a Kd of 281 nM. This Kd and that of the molecule before are within 1.5-fold of each other.

B4 came in with a Kd of 4770 nM.

What is called Kd is a measure of binding affinity in units of concentration.
